Reference: article PMC6946681, “The gastrointestinal pathogen Campylobacter jejuni metabolizes sugars with potential help from commensal Bacteroides vulgatus” (Communications Biology, 2020)

Legend:
[1] = target: Campylobacter jejuni FucX (Cj0485), C-terminally six-histidine tagged (Campylobacter jejuni NCTC11168); experiment: crystal structure; apo FucX, space group C222(1), two monomers in the asymmetric unit, tetramer generated by the crystallographic lattice; crystals grown at 18 °C in 3.4 M 1,6-hexanediol, 0.1 M Tris pH 8.5, 0.2 M MgCl2; 1.60 Å
[2] = target: Campylobacter jejuni FucX (Cj0485), C-terminally six-histidine tagged (Campylobacter jejuni NCTC11168); experiment: crystal structure; FucX pre-incubated with excess NADP+, space group P1, four monomers in the asymmetric unit; 23-26% PEG 4000, 0.08 M Tris pH 8.5, 0.15 M MgCl2, 20% glycerol; 2.15 Å
[3] = tested on: OC1OC[C@@H](O)[C@@H](O)[C@@H]1O; experiment: purified protein; conditions: NADP+ in excess, 50 mM Tris-HCl pH 7.5, 1 mM Mg2+, room temperature
[4] = tested on: C[C@@H]1OC(O)[C@@H](O)[C@H](O)[C@@H]1O; experiment: purified protein; conditions: NADP+ in excess, 50 mM Tris-HCl pH 7.5, 1 mM Mg2+, room temperature
[5] = tested on: NC(=O)c1ccc[n+]([C@@H]2O[C@H](COP(=O)(O)OP(=O)(O)OC[C@H]3O[C@@H](n4cnc5c(N)ncnc54)[C@H](OP(=O)(O)O)[C@@H]3O)[C@@H](O)[C@H]2O)c1; experiment: purified protein; conditions: L-fucose in excess, 50 mM Tris-HCl pH 7.5, 1 mM Mg2+, room temperature, varied: cofactor
[6] = tested on: NC(=O)c1ccc[n+]([C@@H]2O[C@H](COP(=O)(O)OP(=O)(O)OC[C@H]3O[C@@H](n4cnc5c(N)ncnc54)[C@H](O)[C@@H]3O)[C@@H](O)[C@H]2O)c1; experiment: purified protein; conditions: L-fucose in excess, 50 mM Tris-HCl pH 7.5, 1 mM Mg2+, room temperature, varied: cofactor

| stoichiometry N [1] | stoichiometry N [2] | Substance | Km [3] [µM] | kcat [3] [s⁻¹] | Km [4] [µM] | kcat [4] [s⁻¹] | Km [5] [µM] | kcat [5] [s⁻¹] | Km [6] [µM] | kcat [6] [s⁻¹] |
| --- | --- | --- | --- | --- | --- | --- | --- | --- | --- | --- |
| 4 | 4 | Campylobacter jejuni FucX (Cj0485), C-terminally six-histidine tagged (enzyme) | – | – | – | – | – | – | – | – |
| – | – | FucX (Cj0485) (Campylobacter jejuni subsp. jejuni NCTC 11168 = ATCC 700819) | 672.2 ± 82.8 | 18.9 ± 0.8 | 233.8 ± 26.2 | 26.3 ± 0.7 | 9.9 ± 1.9 | 16.5 ± 0.7 | 6050 ± 1080 | 20.5 ± 2.1 |
